T1: fibrinogen Bβ chain (human) (human, UniProt P02675 31-491, N-linked glycan at N364)
T1 sequence (looked up): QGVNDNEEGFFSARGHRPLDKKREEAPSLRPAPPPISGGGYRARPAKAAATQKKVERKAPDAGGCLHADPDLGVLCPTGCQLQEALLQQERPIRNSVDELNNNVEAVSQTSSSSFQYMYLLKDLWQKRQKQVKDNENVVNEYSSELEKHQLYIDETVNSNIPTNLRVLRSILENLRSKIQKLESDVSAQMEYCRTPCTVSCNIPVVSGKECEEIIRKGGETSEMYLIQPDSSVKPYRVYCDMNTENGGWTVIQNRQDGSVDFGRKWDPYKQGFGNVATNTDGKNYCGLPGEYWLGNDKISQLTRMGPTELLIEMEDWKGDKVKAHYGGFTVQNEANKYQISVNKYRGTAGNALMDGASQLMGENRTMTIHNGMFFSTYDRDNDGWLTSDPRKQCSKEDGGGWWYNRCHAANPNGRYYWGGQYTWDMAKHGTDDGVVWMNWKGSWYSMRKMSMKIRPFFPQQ

B1: fibrinogen γ chain, γ-A isoform (human) (natural protein, UniProt P02679-2 27-437, looked up)
chain: YVATRDNCCILDERFGSYCPTTCGIADFLSTYQTKVDKDLQSLEDILHQVENKTSEVKQLIKAIQLTYNPDESSKPNMIDAATLKSRKMLEEIMKYEASILTHDSSIRYLQEIYNSNNQKIVNLKEKVAQLEAQCQEPCKDTVQIHDITGKDCQDIANKGAKQSGLYFIKPLKANQQFLVYCEIDGSGNGWTVFQKRLDGSVDFKKNWIQYKEGFGHLSPTGTTEFWLGNEKIHLISTQSAIPYALRVELEDWNGRTSTADYAMFKVGPEADKYRLTYAYFAGGDAGDAFDGFDFGDDPSDKFFTSHNGMQFSTWDNDNDKFEGNCAEQDGSGWWMNKCHAGHLNGVYYQGGTYSKASTPNGYDNGIIWATWKTRWYSMKKTTMKIIPFNRLTIGEGQQHHLGGAKQAGDV
modifications: N-linked glycan at N52

What was measured:
[1] = target: AαBβγ half-molecule of human fibrinogen (human) (UniProt P02671); assay: SEC
[2] = target: T1, fibrinogen Bβ chain (human); assay: SEC

Molecule | stoichiometry N [1] | binding result [2]
AαBβγ half-molecule of human fibrinogen (from UniProt P02671-2 20-644; P02675 31-491; P02679-2 27-437) (complex) | 2 | –
B1 | – | binds

Reference: paper doi:10.1101/2022.09.05.506423 (bioRxiv, 2022)
